Source: paper doi:10.1101/376806

Molecular target: Nucleosome: Xenopus laevis histone octamer with Cy3-labeled H2A T120C on Widom 601 DNA (Xenopus laevis)
Assay: single-molecule fluorescence co-localisation with photobleaching step counting

fraction of nucleosomes with one Chd1p: 47.8% | fraction of nucleosomes with three Chd1ps: 21.7% | fraction of nucleosomes with two Chd1ps: 30.4%
Substance: Alexa647-labeled Chd1p (from UniProt P32657 1-1468) (enzyme)
